Measurements: US20190071514A1, “ANTI-CD39 ANTIBODIES” (INNATE PHARMA, priority 2016, published 2019)

Assay: Thermal shift stability assay (TSSA), aggregation temperature
Assay type: physicochemical
Parameters: unit not given here
Details: for Tagg run1 / Tagg run2 / Tagg run3: mAb2 VH/Vk, human IgG1 Fc mutation formats, temperature of aggregation; for Tagg Mean: mean of run1-run3
Protocol: The resulting antibodies were tested for stability in the following reference formulation at a concentration of approximatively 7 mg/mL: pH 6.0; histidine buffer (10 mM); sucrose (200 mM); NaCl (50 mM); Polysorbate 80 (PS80) (0.2 g/L). […] So for this study the concentration is set at 0.2 g/L. The stability of the formulations was monitored in two storage conditions (at +5° C.±3° C. and at +40±3° C. For each study, 3 times point were performed: TO, T15D (15 days) and T1M (1 month). A freeze thaw (F/T) and a thermal shift stability assay (TSSA) were conducted for the format comparison. To perform F/T cycles, the samples were frozen at least 2 hours at −20° C. and thawed at least 1 hour at room temperature, the F/T cycle is repeated three times and samples are tested 24 h after the last Freeze/Thaw cycle. At each time point, the following tests were performed: • Particulate Matter (MFI) • Visual Inspection (Appearance) • Impurities (SE-HPLC) • Turbidity (400 nm) • Protein Concentration (280 nm) (performed with Nanodrop, Thermo Fisher Scientific Inc.)
These aromatic residues confer a relatively high predicted hydrophobicity to the antibody. However, the aromatic residues in these antibodies are believed to be important for antibody function and can probably not be replaced by a non-aromatic residue without a reduction or loss of activity. […] Aggregation temperature is correlated with the intrinsic stability. The higher the TAgg, the higher the stability of the protein. […] The stability of each of the Fc domain of human IgG1 isotype comprises an amino acid substitution at Kabat residue(s) 234, 235, 237, 330 and/or 331 (L234A/L235E/P331S substitutions, L234F/L235E/P331S substitutions, L234A/L235E/G237A/P331S substitutions, and L234A/L235E/G237A/A330S/P331S substitutions) improved the antibody, as shown in the table below. Such mutations can therefore enhance the pharmacological properties and/or activity of the antibody.

Row | Molecule | Tagg run1 | Tagg run2 | Tagg run3 | Tagg Mean
1 | L234F/L235E/P331S: mAb2 variable regions as human IgG1 with L234F/L235E/P331S; heavy chain SEQ ID NO: 26, light chain SEQ ID NO: 9 (antibody, Chimeric) heavy: QVQLVQSGSELKKPGASVKVSCKASGYTFTHYGMNWVRQAPGQGLKWMGWINTYTGEPTYADDFKGRFVFSLDTSVSTAYLQISSLKAEDTAVYYCARRRYEGNYVFYYFDYWGQGTTVTVSSASTKGPSVFPLAPSSKSTSGGTAALGCLVKDYFPEPVTVSWNSGALTSGVHTFPAVLQSSGLYSLSSVVTVPSSSLGTQTYICNVNHKPSNTKVDKRVEPKSCDKTHTCPPCPAPEFEGGPSVFLFPPKPKDTLMISRTPEVTCVVVDVSHEDPEVKFNWYVDGVEVHNAKTKPREEQYNSTYRVVSVLTVLHQDWLNGKEYKCKVSNKALPASIEKTISKAKGQPREPQVYTLPPSREEMTKNQVSLTCLVKGFYPSDIAVEWESNGQPENNYKTTPPVLDSDGSFFLYSKLTVDKSRWQQGNVFSCSVMHEALHNHYTQKSLSLSPGK VL: DIQMTQSPSSLSASVGDRVTITCRASENIYSYFSWYQQKPGKAPKLLIYTAKTLAEGVPSRFSGSGSGTDFTLTISSLQPEDFATYYCQHHYVTPYTFGGGTKVEIK | 67.65 | 67.87 | 68.34 | 68.0
2 | L234A/L235E/G237A/A330S/P331S: mAb2 variable regions as human IgG1 with L234A/L235E/G237A/A330S/P331S; heavy chain SEQ ID NO: 28, light chain SEQ ID NO: 9 (antibody, Chimeric) heavy: QVQLVQSGSELKKPGASVKVSCKASGYTFTHYGMNWVRQAPGQGLKWMGWINTYTGEPTYADDFKGRFVFSLDTSVSTAYLQISSLKAEDTAVYYCARRRYEGNYVFYYFDYWGQGTTVTVSSASTKGPSVFPLAPSSKSTSGGTAALGCLVKDYFPEPVTVSWNSGALTSGVHTFPAVLQSSGLYSLSSVVTVPSSSLGTQTYICNVNHKPSNTKVDKRVEPKSCDKTHTCPPCPAPEAEGAPSVFLFPPKPKDTLMISRTPEVTCVVVDVSHEDPEVKFNWYVDGVEVHNAKTKPREEQYNSTYRVVSVLTVLHQDWLNGKEYKCKVSNKALPSSIEKTISKAKGQPREPQVYTLPPSREEMTKNQVSLTCLVKGFYPSDIAVEWESNGQPENNYKTTPPVLDSDGSFFLYSKLTVDKSRWQQGNVFSCSVMHEALHNHYTQKSLSLSPGK VL: DIQMTQSPSSLSASVGDRVTITCRASENIYSYFSWYQQKPGKAPKLLIYTAKTLAEGVPSRFSGSGSGTDFTLTISSLQPEDFATYYCQHHYVTPYTFGGGTKVEIK | 66.35 | 67.58 | 67.07 | 67.0
3 | L234A/L235E/P331S: mAb2 variable regions as human IgG1 with L234A/L235E/P331S; heavy chain SEQ ID NO: 27, light chain SEQ ID NO: 9 (antibody, Chimeric) heavy: QVQLVQSGSELKKPGASVKVSCKASGYTFTHYGMNWVRQAPGQGLKWMGWINTYTGEPTYADDFKGRFVFSLDTSVSTAYLQISSLKAEDTAVYYCARRRYEGNYVFYYFDYWGQGTTVTVSSASTKGPSVFPLAPSSKSTSGGTAALGCLVKDYFPEPVTVSWNSGALTSGVHTFPAVLQSSGLYSLSSVVTVPSSSLGTQTYICNVNHKPSNTKVDKRVEPKSCDKTHTCPPCPAPEAEGGPSVFLFPPKPKDTLMISRTPEVTCVVVDVSHEDPEVKFNWYVDGVEVHNAKTKPREEQYNSTYRVVSVLTVLHQDWLNGKEYKCKVSNKALPASIEKTISKAKGQPREPQVYTLPPSREEMTKNQVSLTCLVKGFYPSDIAVEWESNGQPENNYKTTPPVLDSDGSFFLYSKLTVDKSRWQQGNVFSCSVMHEALHNHYTQKSLSLSPGK VL: DIQMTQSPSSLSASVGDRVTITCRASENIYSYFSWYQQKPGKAPKLLIYTAKTLAEGVPSRFSGSGSGTDFTLTISSLQPEDFATYYCQHHYVTPYTFGGGTKVEIK | 66.50 | 66.91 | 67.77 | 67.1
4 | L234A/L235E/G237A/P331S: mAb2 variable regions as human IgG1 with L234A/L235E/G237A/P331S; heavy chain SEQ ID NO: 29, light chain SEQ ID NO: 9 (antibody, Chimeric) heavy: QVQLVQSGSELKKPGASVKVSCKASGYTFTHYGMNWVRQAPGQGLKWMGWINTYTGEPTYADDFKGRFVFSLDTSVSTAYLQISSLKAEDTAVYYCARRRYEGNYVFYYFDYWGQGTTVTVSSASTKGPSVFPLAPSSKSTSGGTAALGCLVKDYFPEPVTVSWNSGALTSGVHTFPAVLQSSGLYSLSSVVTVPSSSLGTQTYICNVNHKPSNTKVDKRVEPKSCDKTHTCPPCPAPEAEGAPSVFLFPPKPKDTLMISRTPEVTCVVVDVSHEDPEVKFNWYVDGVEVHNAKTKPREEQYNSTYRVVSVLTVLHQDWLNGKEYKCKVSNKALPASIEKTISKAKGQPREPQVYTLPPSREEMTKNQVSLTCLVKGFYPSDIAVEWESNGQPENNYKTTPPVLDSDGSFFLYSKLTVDKSRWQQGNVFSCSVMHEALHNHYTQKSLSLSPGK VL: DIQMTQSPSSLSASVGDRVTITCRASENIYSYFSWYQQKPGKAPKLLIYTAKTLAEGVPSRFSGSGSGTDFTLTISSLQPEDFATYYCQHHYVTPYTFGGGTKVEIK | 66.08 | 66.55 | 66.29 | 66.3
